assay: soluble on expression in E. coli; label from the status in PepcDB or PDB records

Row | Sequence | soluble on expression in E. coli
1 | MAHHHHHHMRGVSAAEIGKFRELQNHWWNPDGPLRTLHFFNPLRVKYINDTCRNFSKRSSLLASSGITPGMRILDVGCGGGILSESLVRLGGNVLGIDMCEESIAVAQQRREQVLQDVASCTLQNGAASLEYRYASLNTIAVEEKQQFDLVVASEVIEHVDDAPRFLQDLCDATKPGGLLIISTMDKSIRAAISHIAVAEYLTALVRPGTHDWSKFVPPKDLSRCALQHQVRQVDLQYIVACPNILMSLSTRQMQLAFSLSKRFDTGHYFWSGLKVTAPA | not soluble
2 | TKEGQIKGKLLLPGGVKTCPVVLIIAGSGPTDMDGNSAIGNLRNNSLKFLAEGLAANGIASLRFDKRGIGTSASAGKEEAKLRFEDYVNDVTGWIDYLAKEKRFTTITVAGHSEGALIGMLACQNRPKVKGYISVAGAGRPAYEIIEAQVAAQQNPEAVRKEVASINGSLKNGKEVSDVPAYLQSLYRASVQPYLISWFKYNPRTVIASVKVPVLIVQGKNDIQVSVEDAELLKKGCPAAELLLIDKMNHVLKDCESKAVQQQMLTYGNPSLPVNSTLIASVSTFVKKLK | soluble
3 | MGSDKIHHHHHHMQELLCDRGKGRHADPMQNKPDTPPLSRFHQFRTADLDEARALVARNFCGHRLERQAREDAFDACQNRAGGNGLFYNYIRYGADVEIEPGELGSFYLIQVPIRGQALIRNGRTEVETGSAIASVLNPDRHTRMRWLAGCEQVLLQIDRNRLTAVAETLTGTALQSPVRFDPQIDRARPEMQRWLALFRRAVSAVDHGALLDPDQALSRALVEDELIAGFLRAQPSSIAPLLERPETGPLSPHVRRARDFMQAHLADPLTLSQIAAAAGTSPRNLQLGFSQLLEMTPLAYLRVLRLNYARYLLRESPPQVTIASIAGAAGFSHLGRFSAQYAARFGEGPSQTRKQHYLI | not soluble
4 | MIAKIIKGTSFSGVLAYILGKQEGKARILYADGVRANAQASDIANDFALQASMRPNVKKPVCHTILSFSAEDTERLSDKVMTDLAKEYLQRMGYADTQYLIVRHLDREHPHLHICINRVNNEGKTISDSNEKYCSTKVCKELTEANLLKWGEGKEAVKRHRLRGNDQLRYAIFDAIKAALPKCTNWQELTSELQKRGIEVQFKTKGQTEKVEGVIFSMDGVSFSGSHIDRSCSYSKLSFALEQNAKHALSLPALPKEDGFIEELSEAIEKLGENLFDSNAPAVDVAELIFQRKLRNQANKKLKRRRL | not soluble
5 | MIRFEIHGDNLTITDAIRNYIEEKVGKLERYFNNVPNAVAHVRVKTYSNSTTKIEVTIPLKDVTLRAEERHDDLYAGIDLITNKLERQVRKYKTRVNRKHRDRGDQDIFVAEVQESTTNNHADDIESENDIEIIRSKQFSLKPMDSEEAVLQMNLLGHDFFIFTDRETDGTSIVYRRKDGKYGLIETTELEHHHHHH | soluble
6 | MSLVGDVYLGVGSASSEYWAAYIEGAKAVASSLGKDVNVIPSEFDGQKLLEQFGAVFAAGCEDCVVTVDPASNAFTKAMIERADTAGAKYVNLWNRPDEIHPWDTVPNTWIANISFDGVDSGYQNGMALCNALGGKGNIVALNGIPDNPPAKQRIAGLHKALQECPGLKLLDTQVGNWDQTQGQSITRAWLAKYGDELNGIFSANDGMALGAVAALREKGLVGKILVTGSDGSSDVIKLIEKGEMLSTMHIDGYVQGAYAVALAAAAVKGDIKMDELKQDQRDFFLSQTLVTKDNAASVLNSKKDASQFSYDALKGNFWAASVGQIPAGANEGHHHHHH | soluble
7 | DRKMNRKMISIVENDGNGFREVFRYDYERKNFVPDNLKEITSIQLERSRELLGWSRDKLYREIENRLLLIRGLAEKGVYDYDTLARELVKYYTNGD | not soluble
8 | MEKKVEAILEFDKIKKQLAEFASSSLGEQAIYELAPATDFQVVQKAQLETEEGAKIIRLRGSAPITGLTDVFAHLKRLEIGGDLNGLEIYQIGSNLRVSRQMKNFMNDLLEIGVEIPLLGALSDELLVLKDVEEDIAISIDESGKILDTASEALSSIRRTLRRTEDRVREKLESYLRDRNASKMLSDAVITIRNDRYVIPVKQEYKGHYGGIVHDQSASGQTLFIEPQSVVDLNNERKALQAKEKQEIERILAEISASLAGWINEIHHNTFILGRFDFILAKARFGKALKAVTPHLSDTGIVHLIAARHPLLDAEKVVANDIYLGEDFSTIVITGPNTGGKTITLKTLGLLTLMAQSGLQIPAQEDSTIAVFENVFADIGDEQSIEQSLSTFSSHMTNIVSILEKVNHKSLILYDELGAGTDPQEGAALAIAILDASHKKGASVVATTHYPELKAYGYNRAHATNASVEFNVETLSPTYKLLIGVPGRSNAFDISRRLGLSESIITEARSLVDTESADLNDMISSLEEKRNLAEREYEEARELARGADALLKDLQKEITNYYQQKDKLLEQANEKAAGIVEKAETEAEEIIHELRTMQLNGAAGIKEHELIDAKTRLGKAKPKTINKAIPKAPKQKPHVFQAGDNVRVLSLGQKGTLLNKISDKEWNVQIGIIKMKIKTTDLEYIEPEKPKKQRIITSVHSSDSPAKSELDLRGERYEDAIQKVDKYLDEALLAGYPQVAIIHGKGTGALRTGVTEYLKNHRMVKSIRFGAAAEGGNGVTIVEFKLEHHHHHH | not soluble
9 | MSLRYTNSHLEDWIENLYKKIDITEPEQINFERIAEALDIRLSFKPVTSFALKHSGIYNICLDSRKSRTEQWYDFAHEFCHIYRHEGDKKTMPATWTDYLDWQSNYFTYHFCIPTCMLRNINLPYIQSHAIENVAWLFKVSPSFAKKRLSIYYRKLTQHLFSQTVTGNLCPPFLEGHHHHHH | not soluble
10 | MKEIKLILTDIDGVWTDGGMFYDQTGNEWKKFNTSDSAGIFWAHNKGIPVGILTGEKTEIVRRRAEKLKVDYLFQGVVDKLSAAEELCNELGINLEQVAYIGDDLNDAKLLKRVGIAGVPASAPFYIRRLSTIFLEKRGGEGVFREFVEKVLGINLEDFIAVIQ | soluble
11 | GFSSEVLKKAYDDTEDIEDQLQQAEGRLFEISQHNMKQDVQPIDPIIKEALGEIQIAANRKEGLSGQPSGFPAIDKLTAGWQASDLIIIAARPAMGKTAFVLSMAKNMAIDYNIPVAIFNLEMSSVQLVKRLMSNVCEIPGEKLKTGRLESHEWVQLDTKLKDFENKPLYIDDTPSLSVFELRTKSRRLVREYGVKVIIIDYLQLMNASGMSFGNREQEVSTISRSLKVLAKELKIPIIALSQLNRSVETRQGDINSKRPQLSDLRESGAIEQDADMVCFIHRPEYYKITEDQQGNSLLGIGEFIIAKHRNGPVDDVRLRFRSEFAKFLPLEAESMVKRHSRIGGSPVEMGVGNGSFAPPLPPPEDNPLLSGPYSSGTSEADFLAEASGIDNPF | not soluble
12 | GAKSEMAFAGKGEISPRAITMWDFSWLERRWPGAGYEDWDQVLDELSERGYNAIRIDAYPHLIAENPMKKWLLKEVWNQQDWGSPDMNEVQVQPNLNLFLSKCKERDIKVGLSSWYRLDVDEVCLKLDTPEKLADCWLTILRSIEEDGLLDTILYVDLCNEWPGDSWAPFFAKTYPNVGWGNWYKEESLRWMKTSLEKMRQVYPDMPFLYSFDHGDVKKYEEVDCSFLDLYEHHIWMAQQNGGEFYKLVGYGYNRFLPDDYKNVVKNAERVYRERPGYWQKLLTDKIELMASVARKNRRPLVTTECWGLVDYKDWPLLKWDWVKDLCELGTITAARTGMWVGVATSNFCGPQFAGMWRDVEWHKRLTSIIRSSPLDESLTKNNEVAAKLLKRL | soluble
13 | MSKPKYNRVVLKLSGEALAGEQGFGINPAVIKSVAEQVKEIAELDVEVAVVVGGGNIWRGKIGSEMGMDRAGADYMGMLATVMNSLALQDSLENIGIQTRVQTSIEMRQVAEPYIRRKAVRHLEKKRVVIFAAGTGNPYFSTDTTAALRAAEIEADVILMAKNNVDGVYNADPSIDPTATKYETLTYLDVLKEGLGVMDSTASSLCMDNDIPLIVFSVMEKGNIKRAVLGENIGTVVRGKLEHHHHHH | not soluble
14 | MGSEEYFKKGAIKVEIKSGALLISPSEFKERYLPTLQDMPVLAFVRNIEAPKSWYSYLISNIEDQKSSIFPTNLPRILEISRRYFSSVKNGIVVIDALEYLTIYNGFEAIAKFLATLRDFAILDNGTVIIITEKKAWKDREWALLTSLLGKLEHHHHHH | soluble

Reference: the DeepSol protein solubility set
